No end group written: not given here.
Tests used:
CRF-RB1 = target: T1, CRF-RB1 (Mus musculus, UniProt Q60748); test: Competitive displacement of 125I-(Nle21,Tyr32)-ovine CRF from membranes of COSM6 cells transfected with pCRF-RB1; format: binding; settings: for displacement of bound radioligand (in words): specificity of binding
T1 construct: The full-length CRF-RB1 receptor cDNA was subcloned into the expression vector pcDNA1; expressed in transfected cells; host or cells: COSM6 cells, DEAE-dextran transient transfection of pCRF-RB1
T1 sequence (Q60748 1-431 isoform Q60748-2): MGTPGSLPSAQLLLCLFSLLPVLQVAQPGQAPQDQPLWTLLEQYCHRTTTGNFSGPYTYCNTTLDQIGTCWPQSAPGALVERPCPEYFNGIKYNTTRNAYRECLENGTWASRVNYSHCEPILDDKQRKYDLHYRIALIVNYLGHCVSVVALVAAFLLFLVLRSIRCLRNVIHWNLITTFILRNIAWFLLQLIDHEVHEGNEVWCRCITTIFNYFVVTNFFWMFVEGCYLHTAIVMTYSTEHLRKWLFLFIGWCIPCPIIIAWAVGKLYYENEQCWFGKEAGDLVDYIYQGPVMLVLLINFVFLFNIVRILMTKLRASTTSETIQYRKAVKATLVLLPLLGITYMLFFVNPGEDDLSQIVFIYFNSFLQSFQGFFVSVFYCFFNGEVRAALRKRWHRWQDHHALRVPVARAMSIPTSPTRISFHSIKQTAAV
Procedure: Approximately 10^6 COSM6 cells were transfected with either hctCRFR or rGnRHR (rat gonadotropin releasing hormone receptor) by the DEAE-dextran method and grown in 150 mm tissue culture dishes. Two days after transfection, the cells were washed twice with 1 ml HDB and were detached by incubation for 15 min at room temperature in 0.5 mM EDTA in HDB. After pelleting, the cells were washed twice with HDB, and then homogenized in 5% sucrose (16 ml/150 mm dish). The homogenate was centrifuged at 600×g for 5 minutes, and the resulting supernatant was centrifuged at 40,000×g for 20 minutes. The resulting pellet (containing crude membranes) was resuspended at 1-4 mg/ml in 10% sucrose, and used in a competitive radioreceptor assay to measure binding to the CRF-R as described in Perrin et al., Endoc., 118:1171 (1986).
The reaction was terminated by filtration through GF/C (Whatman) filters, prewetted with 1%BSA, 10 mM HEPES, pH 7.5. The filters were washed 4 times with 1 ml 0.1% BSA, 50 mM Tris, pH 7.5.
Using the methods described in Example 3, a radioreceptor assay was conducted. Approximately […] of pCRF-RB1 plasmid DNA was transfected into COSM6 cells using the DEAE dextran method. […] In order to calculate a Kd the displacement data were analyzed using the Ligand program of Munson and Rodbard (1980), Anal. Biochem., 107:220-239.

[1] = target: T2, CRF-RB1 expressed in COSM6 cells (Mus musculus, UniProt Q60748); test: CRF-RB1 mediated stimulation of intracellular cAMP in COSM6 cells transfected with pCRF-RB1; format: cell-based; settings: for stimulation of intracellular cAMP accumulation (in words): FIG. 5
T2 construct: The full-length CRF-RB1 receptor cDNA was subcloned into the expression vector pcDNA1; expressed in transfected cells; host or cells: COSM6 cells, DEAE-dextran transient transfection of pCRF-RB1
T2 sequence (Q60748 1-431 isoform Q60748-2): as above
Procedure: Using methods described in Example 4, the ability of CRF-RB1 to stimulate cAMP formation in CRF-RB1-expressing COSM6 cells was investigated. The plasmid pCRF-RB1 was transfected into COSM6 cells. One day later, the cells were trypsinized and replated in 10% FBS, DMEM into 24 or 48 well COSTAR tissue culture wells, and allowed to grow another 24 hours. The medium was changed to 0.1% FBS, DMEM at least two hours before treatments. The cells were preincubated for 30 minutes with 0.1 mM 3-isobutyl-1-methylxanthine and then exposed to various peptides for 30 minutes at 37° C. Intracellular cAMP was measured in duplicate from triplicate wells using an RIA kit (Biomedical Technologies, Stoughton, Mass.).

[2] = target: T3, hCRF-RA1 (CRF receptor encoded by clone hctCRFR) (Homo sapiens, UniProt P34998); test: Competitive radioreceptor assay: displacement of 125I-(Nle21,Tyr32)-ovine CRF from membranes of COSM6 cells transfected with hctCRFR; format: binding; settings: receptor of SEQ ID NO:2
T3 construct: expressed in transfected cells; host or cells: COSM6 cells, DEAE-dextran transient transfection of clone hctCRFR in pcDNA1
T3 sequence (P34998 24-415): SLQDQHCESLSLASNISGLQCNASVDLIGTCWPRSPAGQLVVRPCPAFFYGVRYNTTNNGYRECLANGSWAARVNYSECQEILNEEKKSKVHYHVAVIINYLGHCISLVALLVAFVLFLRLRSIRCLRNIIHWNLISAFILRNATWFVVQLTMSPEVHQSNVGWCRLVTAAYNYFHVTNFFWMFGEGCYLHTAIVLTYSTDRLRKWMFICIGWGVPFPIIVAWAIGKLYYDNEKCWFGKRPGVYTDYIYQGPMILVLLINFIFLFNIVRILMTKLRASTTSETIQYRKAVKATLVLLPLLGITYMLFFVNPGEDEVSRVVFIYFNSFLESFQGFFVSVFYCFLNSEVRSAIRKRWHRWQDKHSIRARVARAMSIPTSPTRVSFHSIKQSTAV
Procedure: Approximately 10^6 COSM6 cells were transfected with either […] or […] (rat gonadotropin releasing hormone receptor) by the DEAE-dextran method and grown in 150 mm tissue culture dishes. Two days after transfection, the cells were washed twice with 1 ml HDB and were detached by incubation for 15 min at room temperature in 0.5 mM EDTA in HDB. After pelleting, the cells were washed twice with HDB, and then homogenized in 5% sucrose (16 ml/150 mm dish). […] The reaction was terminated by filtration through GF/C (Whatman) filters, prewetted with 1%BSA, 10 mM HEPES, pH 7.5. The filters were washed 4 times with 1 ml 0.1% BSA, 50 mM Tris, pH 7.5. Filter-bound radioactivity, indicating the presence of CRF-R:^125 I-([…],Tyr^32)-ovine CRF complex, was determined by g-scintillation counting.

[3] = target: T4, CRF-RA1 (hctCRFR) expressed in COSM6 cells (Homo sapiens, UniProt P34998); test: CRF-R mediated stimulation of intracellular cAMP in COSM6 cells transfected with hctCRFR; format: cell-based; settings: receptor transfected COSM6 cells
T4 construct: expressed in transfected cells; host or cells: COSM6 cells, DEAE-dextran transient transfection of clone hctCRFR in pcDNA1
T4 sequence (P34998 24-415): T3 sequence (P34998 24-415)
Procedure: To determine the possible linkage of CRF-R to multiple signaling pathways, the ability of CRF-R to stimulate cAMP formation in CRF-R-expressing COSM6 cells was investigated. To ensure that changes in cAMP levels were not influenced by alterations in cAMP phosphodiesterase, the phosphodiesterase inhibitor 3-isobutyl-1-methylxanthine (IBMX) was added to the medium. COSM6 cells were trypsinized 24 hrs following transfection with either ctCRFR or rGnRHR in 150 mm dishes and were replated in 24-well plates (Costar) and allowed to express the receptors for another 24 hrs in 10% FCS, DMEM.
On the day of the stimulation, the medium was changed to 0.1 w FCS, DMEM at least 2 hrs before a 30 minute preincubation with 0.1 mM IBMX or medium. Test ligands (i.e., r/h CRF, sauvagine, salmon calcitonin, Vasoactive intestinal peptide (VIP), growth hormone releasing factor (GRF) were added in 0.1% BSA, 0.1% FCS, DMEM, and stimulation was carried out for 30 minutes at 37° C., 7.5% CO2. The medium was removed and the cells were extracted overnight with 1 ml ice-cold 95% EtOH-0.1M HCl at −20° C. Cyclic AMP (cAMP) levels were determined in duplicate from triplicate wells by RIA kit (Biomedical Technologies, Stoughton, Mass.) following the manufacturer's protocol.

Row | Compound | affinity of the CRF-Rs for the ligand (in words) (CRF-RB1) | stimulation of intracellular cAMP accumulation (in words) [1] | affinity of the receptor for the ligand (in words) [2] | effect on cyclic AMP levels / activity of non-related peptides (in words) [3] | also measured
1 | CC[C@H](C)[C@H](NC(=O)[C@@H](NC(=O)[C@H](CC(=O)O)NC(=O)[C@H](CC(C)C)NC(=O)[C@H](CC(C)C)NC(=O)[C@H](CC(C)C)NC(=O)[C@H](CCCNC(=N)N)NC(=O)[C@H](CC(N)=O)NC(=O)[C@H](CC(N)=O)NC(=O)[C@H](C)NC(=O)[C@H](C)NC(=O)[C@H](CCC(N)=O)NC(=O)[C@H](CCC(N)=O)NC(=O)[C@H](CCCCN)NC(=O)[C@H](CCC(=O)O)NC(=O)[C@H](CCCCN)NC(=O)[C@H](CCC(=O)O)NC(=O)[C@H](CCC(N)=O)NC(=O)[C@H](CCCCN)NC(=O)[C@H](CCC(=O)O)NC(=O)[C@@H](NC(=O)[C@H](CCC(=O)O)NC(=O)[C@@H](NC(=O)[C@H](CCSC)NC(=O)[C@H](CCCCN)NC(=O)[C@H](CCCNC(=N)N)NC(=O)[C@H](CC(C)C)NC(=O)[C@H](CC(C)C)NC(=O)[C@H](CCC(=O)O)NC(=O)[C@H](CC(C)C)NC(=O)[C@H](CO)NC(=O)[C@H](CC(C)C)NC(=O)[C@H](CC(=O)O)NC(=O)[C@@H](NC(=O)[C@H](CO)NC(=O)[C@@H](NC(=O)[C@@H]1CCCN1C(=O)[C@@H]1CCCN1C(=O)CNC(=O)[C@@H]1CCC(=O)N1)[C@@H](C)CC)[C@@H](C)CC)[C@@H](C)CC)[C@@H](C)CC)[C@@H](C)O)C(N)=O [sauvagine] | high affinity | equipotent to CRF | – | – | –
2 | (DPhe^12,Nle^21,38)hCRF(12-41) | high affinity | – | high affinity | – | inhibition of the CRF signal by antagonist (in words) ([1]; 1 mM antagonist): inhibited
3 | GRF: growth hormone releasing factor, non-related peptide (YADAIFTNSYRKVLGQLSARKLLQDIMSRQQGESNQERGA) | – | do not stimulate | – | inactive | displacement of bound radioligand (in words) (CRF-RB1): do not displace
4 | NDDPPISIDLTFHLLRNMIEMARIENEREQAGLNRKYLDEV-NH2 (C-terminus assumed) [urotensin] | high affinity | equipotent to CRF | high affinity | – | Ki (CRF-RB1; on CRF-RB): 0.7 ± 0.3 nM
5 | SQEPPISLDLTFHALREVLEMTKADQLAQQAHSNRKLLDIA-NH2 (C-terminus assumed) [[Ala^14]-ovine CRF] | – | – | very low affinity | – | –
6 | VIP: vasoactive intestinal peptide, non-related peptide | – | do not stimulate | – | inactive | displacement of bound radioligand (in words) (CRF-RB1): do not displace
7 | gonadotropin releasing hormone: non-related peptide | – | – | – | inactive | –
8 | ovine CRF | – | – | high affinity | – | –
9 | salmon calcitonin: non-related peptide | – | – | – | inactive | –
